One data set has as its target T1, human SepSecS (Homo sapiens, UniProt Q9HD40, V491A).
T1 sequence (Q9HD40 1-501 V491A): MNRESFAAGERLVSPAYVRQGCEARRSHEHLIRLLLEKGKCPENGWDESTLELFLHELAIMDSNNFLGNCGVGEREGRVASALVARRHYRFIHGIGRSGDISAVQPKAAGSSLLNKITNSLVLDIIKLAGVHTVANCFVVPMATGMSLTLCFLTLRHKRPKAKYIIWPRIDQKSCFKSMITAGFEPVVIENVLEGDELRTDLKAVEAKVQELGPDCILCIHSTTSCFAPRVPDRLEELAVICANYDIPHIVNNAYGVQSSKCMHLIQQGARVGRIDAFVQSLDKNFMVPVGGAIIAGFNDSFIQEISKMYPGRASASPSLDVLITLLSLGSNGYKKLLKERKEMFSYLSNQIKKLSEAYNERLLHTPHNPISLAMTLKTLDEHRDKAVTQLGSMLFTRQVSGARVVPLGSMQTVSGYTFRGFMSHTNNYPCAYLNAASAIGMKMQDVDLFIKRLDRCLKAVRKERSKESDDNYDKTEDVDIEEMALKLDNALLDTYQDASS
As to conditions: holo SepSecS without bound tRNA; P-loop site near active site.

The subject of a further data set is SepSecS S27A (human). Nature of the data set: MST. As to conditions: MST: 20 mM HEPES pH 8.0, 150 mM NaCl, 5% glycerol, 0.05% Tween-20, 0.4 mg/ml BSA, room temperature, 5 nM labeled SepSecS; van't Hoff series 24-34 C.
The next data set concerns SepSecS K38M (human). Nature of the data set: MST. As to conditions: MST: 20 mM HEPES pH 8.0, 150 mM NaCl, 5% glycerol, 0.05% Tween-20, 0.4 mg/ml BSA, room temperature, 5 nM labeled SepSecS; van't Hoff series 24-34 C.
The subject of the next data set is Q399A SepSecS (human). The experiment in a line: MST. As to conditions: MST: 20 mM HEPES pH 8.0, 150 mM NaCl, 5% glycerol, 0.05% Tween-20, 0.4 mg/ml BSA, room temperature, 5 nM labeled SepSecS; van't Hoff series 24-34 C.
Another data set has as its system SepSecS F396V (human). Nature of the data set: MST. As to conditions: MST: 20 mM HEPES pH 8.0, 150 mM NaCl, 5% glycerol, 0.05% Tween-20, 0.4 mg/ml BSA, room temperature, 5 nM labeled SepSecS; van't Hoff series 24-34 C.
In another data set the test system is SepSecS WT (human). The experiment in a line: MST. As to conditions: MST: 20 mM HEPES pH 8.0, 150 mM NaCl, 5% glycerol, 0.05% Tween-20, 0.4 mg/ml BSA, room temperature, 5 nM labeled SepSecS; van't Hoff series 24-34 C.
The next data set relates to SepSecS H30A (human). The experiment in a line: MST. As to conditions: MST: 20 mM HEPES pH 8.0, 150 mM NaCl, 5% glycerol, 0.05% Tween-20, 0.4 mg/ml BSA, room temperature, 5 nM labeled SepSecS; van't Hoff series 24-34 C.
The test system of a further data set is SepSecS R398A (human). The experiment in a line: MST. As to conditions: MST: 20 mM HEPES pH 8.0, 150 mM NaCl, 5% glycerol, 0.05% Tween-20, 0.4 mg/ml BSA, room temperature, 5 nM labeled SepSecS; van't Hoff series 24-34 C.
The next data set concerns SepSecS E37L (human). The experiment in a line: MST. As to conditions: MST: 20 mM HEPES pH 8.0, 150 mM NaCl, 5% glycerol, 0.05% Tween-20, 0.4 mg/ml BSA, room temperature, 5 nM labeled SepSecS; van't Hoff series 24-34 C.
The test system of the next data set is SepSecS R26A (human). The experiment in a line: MST. As to conditions: MST: 20 mM HEPES pH 8.0, 150 mM NaCl, 5% glycerol, 0.05% Tween-20, 0.4 mg/ml BSA, room temperature, 5 nM labeled SepSecS; van't Hoff series 24-34 C.
Another data set relates to SepSecS T397V (human). Nature of the data set: MST. As to conditions: MST: 20 mM HEPES pH 8.0, 150 mM NaCl, 5% glycerol, 0.05% Tween-20, 0.4 mg/ml BSA, room temperature, 5 nM labeled SepSecS; van't Hoff series 24-34 C.
The test system of a further data set is SepSecS R33A (human). Nature of the data set: MST. As to conditions: MST: 20 mM HEPES pH 8.0, 150 mM NaCl, 5% glycerol, 0.05% Tween-20, 0.4 mg/ml BSA, room temperature, 5 nM labeled SepSecS; van't Hoff series 24-34 C.
A further data set deals with SepSecS S393A (human). Nature of the data set: MST. As to conditions: MST: 20 mM HEPES pH 8.0, 150 mM NaCl, 5% glycerol, 0.05% Tween-20, 0.4 mg/ml BSA, room temperature, 5 nM labeled SepSecS; van't Hoff series 24-34 C.

These results are taken from publication PMC10164584, “Structural basis for the tRNA-dependent activation of the terminal complex of selenocysteine synthesis in humans” (Nucleic Acids Research, 2023).

As for `O=P(O)(O)O` [phosphate ion], on human SepSecS, the “X-ray crystallography, 2.25 A” value was “structure of holo SepSecS possessed a phosphate ion bound to the P-loop”.

What is called Kd is the equilibrium constant for the complex coming apart. Low values mean tighter binding, high ones weaker binding. Regarding tRNASec WT (unacylated), the Kd in the data set with SepSecS S27A (human) came to 133 nM; with SepSecS K38M (human) it was 1670 nM; in the data set on Q399A SepSecS (human), 567 nM; in the data set on SepSecS F396V (human), 44.1 nM; in the data set with SepSecS WT (human), 134 nM; in the data set on SepSecS H30A (human) it was 166 nM. For the same molecule, the dissociation constant (Kd) stood at 2530 nM with SepSecS R398A (human); 166 nM in the data set on SepSecS E37L (human); 516 nM in the data set with SepSecS R26A (human); 62.8 nM with SepSecS T397V (human); 28.9 nM in the data set on SepSecS R33A (human); 197 nM with SepSecS S393A (human).
